Test results: paper PMC7785527, “Human Short Peptidoglycan Recognition Protein PGLYRP1/Tag-7/PGRP-S Inhibits Listeria monocytogenes Intracellular Survival in Macrophages” (Frontiers in Cellular and Infection Microbiology, 2020)

Molecular target: the molecule itself
Assay: SDS-PAGE without reducing agent (bands identified by MALDI-MS); 3 ug purified PGLYRP1; Laemmli loading buffer without beta-mercaptoethanol (compared with 5 mM beta-mercaptoethanol); Coomassie stained gel

B1: human recombinant PGLYRP1/Tag-7/PGRP-S with a C-terminal triple DED epitope (natural protein, UniProt O75594 22-196, looked up)
chain: QETEDPACCSPIVPRNEWKALASECAQHLSLPLRYVVVSHTAGSSCNTPASCQQQARNVQHYHMKTLGWCDVGYNFLIGEDGLVYEGRGWNFTGAHSGHLWNPMSIGISFMGNYMDRVPTPQAIRAAQGLLACGVAQGALRSNYVLKGHRDVQRTLSPGNQLYHLIQNWPHYRSP
notes: called full-sized / full-size; On non-reducing SDS-PAGE the preparation is a mix of monomer (~25 kDa) and disulfide-linked homodimer (~60 kDa) of similar intensity; also called recombinant tagged PGLYRP1
With B1 as the protein, how does the “stoichiometry N” value read?
The value was 2.
